Experimental findings from PMC9688318, “Construction of a Versatile, Programmable RNA-Binding Protein Using Designer PPR Proteins and Its Application for Splicing Control in Mammalian Cells” are described below.

Series [1] concerns the target T1, PPR2.0 t5 (synthetic).
T1 chain: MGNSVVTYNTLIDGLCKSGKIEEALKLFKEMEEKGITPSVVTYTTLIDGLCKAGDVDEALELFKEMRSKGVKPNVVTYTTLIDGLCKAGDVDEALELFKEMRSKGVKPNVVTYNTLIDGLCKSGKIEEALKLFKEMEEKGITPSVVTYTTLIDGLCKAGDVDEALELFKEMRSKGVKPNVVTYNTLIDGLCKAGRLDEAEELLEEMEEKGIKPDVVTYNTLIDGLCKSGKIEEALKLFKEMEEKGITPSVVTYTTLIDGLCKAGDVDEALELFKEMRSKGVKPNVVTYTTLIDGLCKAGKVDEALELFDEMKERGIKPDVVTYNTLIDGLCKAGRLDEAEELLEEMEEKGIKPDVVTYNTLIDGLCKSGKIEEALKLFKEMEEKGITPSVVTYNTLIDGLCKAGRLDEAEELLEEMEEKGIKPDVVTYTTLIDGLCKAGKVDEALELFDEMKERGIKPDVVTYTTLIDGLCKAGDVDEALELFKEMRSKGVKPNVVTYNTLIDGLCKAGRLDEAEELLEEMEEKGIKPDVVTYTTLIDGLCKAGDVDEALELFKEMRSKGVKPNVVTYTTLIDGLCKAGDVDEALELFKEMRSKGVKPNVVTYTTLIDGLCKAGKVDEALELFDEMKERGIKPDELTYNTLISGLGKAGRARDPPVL
Kind of series: EMSA; 20 mM Tris-HCl pH 8.0, 150 mM NaCl, 0.5% NP-40, 1 mM DTT, 1 mM EDTA; 20 nM RNA. The settings on record: tags: N-terminal SBP, C-terminal His6, kept; label: biotin.

For series [2], the target named is T1, PPR2.0 t5. Kind of series: 20 mM Tris-HCl pH 8.0, 150 mM NaCl, 0.5% NP-40, 1 mM DTT. The note with it: tags: N-terminal NanoLuc, C-terminal His6, kept; label: biotin.
The target in series [3] is T2, PPR2.0 t14 (synthetic).
T2 chain: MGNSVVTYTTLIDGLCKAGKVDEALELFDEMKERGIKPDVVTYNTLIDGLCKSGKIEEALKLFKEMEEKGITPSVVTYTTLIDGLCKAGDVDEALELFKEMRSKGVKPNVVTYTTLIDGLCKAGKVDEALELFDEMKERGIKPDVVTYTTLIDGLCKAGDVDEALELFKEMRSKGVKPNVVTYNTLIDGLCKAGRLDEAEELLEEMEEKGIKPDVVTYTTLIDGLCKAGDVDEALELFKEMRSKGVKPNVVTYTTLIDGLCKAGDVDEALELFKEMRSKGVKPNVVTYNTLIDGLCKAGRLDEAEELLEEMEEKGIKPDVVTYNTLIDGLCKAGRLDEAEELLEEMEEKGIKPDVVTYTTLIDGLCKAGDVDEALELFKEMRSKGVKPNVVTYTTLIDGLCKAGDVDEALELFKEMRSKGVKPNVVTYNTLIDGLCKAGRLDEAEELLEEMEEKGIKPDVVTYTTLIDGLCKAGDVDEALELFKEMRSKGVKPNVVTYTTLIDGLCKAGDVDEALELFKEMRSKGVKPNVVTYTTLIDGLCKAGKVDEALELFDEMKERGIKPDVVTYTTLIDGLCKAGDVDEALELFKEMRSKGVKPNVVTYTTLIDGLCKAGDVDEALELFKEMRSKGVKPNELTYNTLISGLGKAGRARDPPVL
Put plainly: EMSA; 20 mM Tris-HCl pH 8.0, 150 mM NaCl, 0.5% NP-40, 1 mM DTT, 1 mM EDTA; 20 nM RNA. The settings on record: tags: N-terminal SBP, C-terminal His6, kept; label: biotin.

Series [4] concerns the target T2, PPR2.0 t14. Put plainly: 20 mM Tris-HCl pH 8.0, 150 mM NaCl, 0.5% NP-40, 1 mM DTT. The note with it: tags: N-terminal NanoLuc, C-terminal His6, kept; label: biotin.
For series [5], the target named is T3, PPR2.0 t4 (synthetic).
T3 chain: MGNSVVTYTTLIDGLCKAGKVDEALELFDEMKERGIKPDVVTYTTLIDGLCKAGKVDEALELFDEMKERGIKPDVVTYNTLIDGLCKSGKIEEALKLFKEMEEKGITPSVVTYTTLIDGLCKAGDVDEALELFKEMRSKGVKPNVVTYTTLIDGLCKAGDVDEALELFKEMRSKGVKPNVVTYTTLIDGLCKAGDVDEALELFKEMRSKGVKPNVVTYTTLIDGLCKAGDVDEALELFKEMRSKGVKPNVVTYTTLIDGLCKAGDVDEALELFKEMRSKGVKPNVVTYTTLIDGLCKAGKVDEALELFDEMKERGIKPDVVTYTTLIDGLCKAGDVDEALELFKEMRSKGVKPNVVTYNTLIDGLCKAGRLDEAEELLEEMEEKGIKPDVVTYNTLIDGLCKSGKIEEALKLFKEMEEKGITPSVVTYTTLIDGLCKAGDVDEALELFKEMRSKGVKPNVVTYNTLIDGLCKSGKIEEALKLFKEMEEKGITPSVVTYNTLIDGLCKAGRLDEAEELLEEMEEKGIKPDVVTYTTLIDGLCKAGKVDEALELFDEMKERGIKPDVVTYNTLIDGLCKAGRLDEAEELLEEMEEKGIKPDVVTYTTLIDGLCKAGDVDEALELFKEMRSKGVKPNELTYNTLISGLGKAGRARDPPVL
Kind of series: EMSA; 20 mM Tris-HCl pH 8.0, 150 mM NaCl, 0.5% NP-40, 1 mM DTT, 1 mM EDTA; 20 nM RNA. The note with it: tags: N-terminal SBP, C-terminal His6, kept; label: biotin.

Series [6] addresses T3, PPR2.0 t4. Kind of series: 20 mM Tris-HCl pH 8.0, 150 mM NaCl, 0.5% NP-40, 1 mM DTT. The settings on record: tags: N-terminal NanoLuc, C-terminal His6, kept; label: biotin.
Series [7] deals with T4, PPR2.0 t8 (synthetic).
T4 chain: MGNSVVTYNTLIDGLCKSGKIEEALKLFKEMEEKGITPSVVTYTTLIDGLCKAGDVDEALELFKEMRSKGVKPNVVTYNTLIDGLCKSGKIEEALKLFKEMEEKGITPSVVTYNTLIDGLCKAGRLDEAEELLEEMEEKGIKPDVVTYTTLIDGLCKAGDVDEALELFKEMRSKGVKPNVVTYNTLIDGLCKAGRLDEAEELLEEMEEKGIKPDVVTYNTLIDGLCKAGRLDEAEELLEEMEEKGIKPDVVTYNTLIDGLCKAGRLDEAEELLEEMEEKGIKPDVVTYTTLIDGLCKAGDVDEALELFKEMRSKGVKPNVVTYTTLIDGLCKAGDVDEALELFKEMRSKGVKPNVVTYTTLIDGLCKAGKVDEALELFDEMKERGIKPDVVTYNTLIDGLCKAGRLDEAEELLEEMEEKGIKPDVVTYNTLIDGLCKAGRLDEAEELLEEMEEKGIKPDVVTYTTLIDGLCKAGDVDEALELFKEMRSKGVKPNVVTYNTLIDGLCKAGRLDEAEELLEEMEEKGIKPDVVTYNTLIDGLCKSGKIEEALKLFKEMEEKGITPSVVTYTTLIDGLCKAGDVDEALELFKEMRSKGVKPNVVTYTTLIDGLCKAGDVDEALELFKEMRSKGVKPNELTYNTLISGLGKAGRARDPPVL
Put plainly: EMSA; 20 mM Tris-HCl pH 8.0, 150 mM NaCl, 0.5% NP-40, 1 mM DTT, 1 mM EDTA; 20 nM RNA. The settings on record: tags: N-terminal SBP, C-terminal His6, kept; label: biotin.

Series [8] has as its target T4, PPR2.0 t8. Put plainly: 20 mM Tris-HCl pH 8.0, 150 mM NaCl, 0.5% NP-40, 1 mM DTT. The note with it: tags: N-terminal NanoLuc, C-terminal His6, kept; label: biotin.
Series [9] deals with T5, PPR2.0 t15 (synthetic).
T5 chain: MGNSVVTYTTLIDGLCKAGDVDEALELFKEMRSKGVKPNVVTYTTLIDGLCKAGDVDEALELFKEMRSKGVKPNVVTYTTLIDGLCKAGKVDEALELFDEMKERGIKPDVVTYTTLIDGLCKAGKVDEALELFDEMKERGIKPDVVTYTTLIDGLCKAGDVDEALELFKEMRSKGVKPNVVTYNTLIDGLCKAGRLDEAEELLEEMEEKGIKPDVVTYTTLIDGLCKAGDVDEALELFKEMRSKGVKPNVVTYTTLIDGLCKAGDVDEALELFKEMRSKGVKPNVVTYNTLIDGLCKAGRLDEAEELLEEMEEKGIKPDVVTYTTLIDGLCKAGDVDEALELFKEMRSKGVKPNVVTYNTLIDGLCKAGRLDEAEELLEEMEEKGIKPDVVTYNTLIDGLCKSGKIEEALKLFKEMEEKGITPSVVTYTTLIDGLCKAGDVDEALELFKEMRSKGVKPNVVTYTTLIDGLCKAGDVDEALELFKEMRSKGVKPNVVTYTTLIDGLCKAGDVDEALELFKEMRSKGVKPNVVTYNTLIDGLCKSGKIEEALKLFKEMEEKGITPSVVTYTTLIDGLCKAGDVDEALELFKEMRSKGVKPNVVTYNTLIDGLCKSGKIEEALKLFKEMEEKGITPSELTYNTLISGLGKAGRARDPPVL
Put plainly: EMSA; 20 mM Tris-HCl pH 8.0, 150 mM NaCl, 0.5% NP-40, 1 mM DTT, 1 mM EDTA; 20 nM RNA. The note with it: tags: N-terminal SBP, C-terminal His6, kept; label: biotin.

Series [10] has as its target T5, PPR2.0 t15. Kind of series: 20 mM Tris-HCl pH 8.0, 150 mM NaCl, 0.5% NP-40, 1 mM DTT. The note with it: tags: N-terminal NanoLuc, C-terminal His6, kept; label: biotin.
For series [11], the target named is T6, PPR2.0 t11 (synthetic).
T6 chain: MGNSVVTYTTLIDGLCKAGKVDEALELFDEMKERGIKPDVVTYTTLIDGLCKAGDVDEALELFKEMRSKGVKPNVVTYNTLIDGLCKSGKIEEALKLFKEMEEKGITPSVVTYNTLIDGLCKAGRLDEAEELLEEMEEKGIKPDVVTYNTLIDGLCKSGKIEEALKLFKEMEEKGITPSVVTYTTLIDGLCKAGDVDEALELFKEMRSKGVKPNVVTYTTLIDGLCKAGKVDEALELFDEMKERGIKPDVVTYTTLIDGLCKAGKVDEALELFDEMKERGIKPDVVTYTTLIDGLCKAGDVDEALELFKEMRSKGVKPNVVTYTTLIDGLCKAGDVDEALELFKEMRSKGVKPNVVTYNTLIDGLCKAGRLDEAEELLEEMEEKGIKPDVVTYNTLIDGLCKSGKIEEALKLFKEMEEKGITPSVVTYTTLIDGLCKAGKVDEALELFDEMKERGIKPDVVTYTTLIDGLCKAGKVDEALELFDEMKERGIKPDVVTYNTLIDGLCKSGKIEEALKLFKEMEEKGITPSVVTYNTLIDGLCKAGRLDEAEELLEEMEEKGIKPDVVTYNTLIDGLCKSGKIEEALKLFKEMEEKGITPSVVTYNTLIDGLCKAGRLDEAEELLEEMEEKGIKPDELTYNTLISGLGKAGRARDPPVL
Kind of series: EMSA; 20 mM Tris-HCl pH 8.0, 150 mM NaCl, 0.5% NP-40, 1 mM DTT, 1 mM EDTA; 20 nM RNA. The note with it: tags: N-terminal SBP, C-terminal His6, kept; label: biotin.

For series [12], the target named is T6, PPR2.0 t11. Kind of series: 20 mM Tris-HCl pH 8.0, 150 mM NaCl, 0.5% NP-40, 1 mM DTT. The note with it: tags: N-terminal NanoLuc, C-terminal His6, kept; label: biotin.

In turn, GACAUGCCAACAUCAGUCUGAUAAGGACUG (ssRNA) [Probe_t5] showed a Kd with PPR2.0 t5 [1] of 167 nM. For the same molecule, the binding signal with PPR2.0 t5 [2] was 1.67e+07 RBP-ELISA luminescence, CPS.
Take GACAUGCGCAGAUAAUUAAUAAGAAGACUG (ssRNA) [Probe_t14]: in the series with PPR2.0 t14 [3], binding was characterised by a dissociation constant (Kd) of 197 nM. Also, the binding signal with PPR2.0 t14 [4] is 1.33e+07 RBP-ELISA luminescence, CPS.
Take GACAUGCGGCAAAAAGAUCACUGUAGACUG (ssRNA) [Probe_t4]: in the series with PPR2.0 t4 [5], binding was put at a Kd of 2.57 nM. Moreover, the binding signal with PPR2.0 t4 [6] is 5.98e+07 RBP-ELISA luminescence, CPS.
As to GACAUGCCACUAUUUAAGUUAUCAAGACUG (ssRNA) [Probe_t8], binding with PPR2.0 t8 [7] was put at a Kd of 1.95 nM. Also, in the series with PPR2.0 t8 [8], the binding signal was 4.7e+07 RBP-ELISA luminescence, CPS.
Take GACAUGCAAGGAUAAUAUCAAACACGACUG (ssRNA) [Probe_t15]: in the series with PPR2.0 t15 [9], the Kd was determined as 41 nM. In addition, in the series with PPR2.0 t15 [10], the binding signal is 2.84e+07 RBP-ELISA luminescence, CPS.
As for GACAUGCGACUCAGGAAUCGGCUCUGACUG (ssRNA) [Probe_t11], the Kd in the series with PPR2.0 t11 [11] worked out at 63.3 nM. Moreover, the binding signal with PPR2.0 t11 [12] was 3.78e+07 RBP-ELISA luminescence, CPS.
